We go through 21 molecules from patent US20110118131A1 (published 2011).

B1: XPA23 Fab, heavy chain D106S (Fab, V domains shown)
VH: EVQLLESGGGLVQPGGSLRLSCAASGFTFSKYFMFWVRQAPGKGLEWVSVISPSGGMTRYADSVKGRFTISRDNSKNTLYLQMNSLRAEDTAVYYCARVGYGGNSSYWGQGTLVTVSS
VL: DIQMTQSPSSVSASVGDRLTIICRASQDINRWLAWYQQTPGNAPKLLIHSATSLQSGVPSRFSGSGSGTDFTLTINSLQPEDFATYYCQQADSFPLTFGGGTKVEIK
B2: XPA23 Fab, heavy chain D106Y (Fab, V domains shown)
VH: EVQLLESGGGLVQPGGSLRLSCAASGFTFSKYFMFWVRQAPGKGLEWVSVISPSGGMTRYADSVKGRFTISRDNSKNTLYLQMNSLRAEDTAVYYCARVGYGGNSYYWGQGTLVTVSS
VL: DIQMTQSPSSVSASVGDRLTIICRASQDINRWLAWYQQTPGNAPKLLIHSATSLQSGVPSRFSGSGSGTDFTLTINSLQPEDFATYYCQQADSFPLTFGGGTKVEIK
B3: XPA23 Fab, heavy chain F33N (Fab, V domains shown)
VH: EVQLLESGGGLVQPGGSLRLSCAASGFTFSKYNMFWVRQAPGKGLEWVSVISPSGGMTRYADSVKGRFTISRDNSKNTLYLQMNSLRAEDTAVYYCARVGYGGNSDYWGQGTLVTVSS
VL: DIQMTQSPSSVSASVGDRLTIICRASQDINRWLAWYQQTPGNAPKLLIHSATSLQSGVPSRFSGSGSGTDFTLTINSLQPEDFATYYCQQADSFPLTFGGGTKVEIK
B4: XPA23 Fab, heavy chain F33K (Fab, V domains shown)
VH: EVQLLESGGGLVQPGGSLRLSCAASGFTFSKYKMFWVRQAPGKGLEWVSVISPSGGMTRYADSVKGRFTISRDNSKNTLYLQMNSLRAEDTAVYYCARVGYGGNSDYWGQGTLVTVSS
VL: DIQMTQSPSSVSASVGDRLTIICRASQDINRWLAWYQQTPGNAPKLLIHSATSLQSGVPSRFSGSGSGTDFTLTINSLQPEDFATYYCQQADSFPLTFGGGTKVEIK
B5: XPA23 Fab, heavy chain F35N (Fab, V domains shown)
VH: EVQLLESGGGLVQPGGSLRLSCAASGFTFSKYFMNWVRQAPGKGLEWVSVISPSGGMTRYADSVKGRFTISRDNSKNTLYLQMNSLRAEDTAVYYCARVGYGGNSDYWGQGTLVTVSS
VL: DIQMTQSPSSVSASVGDRLTIICRASQDINRWLAWYQQTPGNAPKLLIHSATSLQSGVPSRFSGSGSGTDFTLTINSLQPEDFATYYCQQADSFPLTFGGGTKVEIK
B6: XPA23 Fab, heavy chain D106W (Fab, V domains shown)
VH: EVQLLESGGGLVQPGGSLRLSCAASGFTFSKYFMFWVRQAPGKGLEWVSVISPSGGMTRYADSVKGRFTISRDNSKNTLYLQMNSLRAEDTAVYYCARVGYGGNSWYWGQGTLVTVSS
VL: DIQMTQSPSSVSASVGDRLTIICRASQDINRWLAWYQQTPGNAPKLLIHSATSLQSGVPSRFSGSGSGTDFTLTINSLQPEDFATYYCQQADSFPLTFGGGTKVEIK
B7: XPA23 Fab, heavy chain F33W (Fab, V domains shown)
VH: EVQLLESGGGLVQPGGSLRLSCAASGFTFSKYWMFWVRQAPGKGLEWVSVISPSGGMTRYADSVKGRFTISRDNSKNTLYLQMNSLRAEDTAVYYCARVGYGGNSDYWGQGTLVTVSS
VL: DIQMTQSPSSVSASVGDRLTIICRASQDINRWLAWYQQTPGNAPKLLIHSATSLQSGVPSRFSGSGSGTDFTLTINSLQPEDFATYYCQQADSFPLTFGGGTKVEIK
B8: XPA23 Fab, heavy chain F35D (Fab, V domains shown)
VH: EVQLLESGGGLVQPGGSLRLSCAASGFTFSKYFMDWVRQAPGKGLEWVSVISPSGGMTRYADSVKGRFTISRDNSKNTLYLQMNSLRAEDTAVYYCARVGYGGNSDYWGQGTLVTVSS
VL: DIQMTQSPSSVSASVGDRLTIICRASQDINRWLAWYQQTPGNAPKLLIHSATSLQSGVPSRFSGSGSGTDFTLTINSLQPEDFATYYCQQADSFPLTFGGGTKVEIK
B9: XPA23 Fab, heavy chain F35R (Fab, V domains shown)
VH: EVQLLESGGGLVQPGGSLRLSCAASGFTFSKYFMRWVRQAPGKGLEWVSVISPSGGMTRYADSVKGRFTISRDNSKNTLYLQMNSLRAEDTAVYYCARVGYGGNSDYWGQGTLVTVSS
VL: DIQMTQSPSSVSASVGDRLTIICRASQDINRWLAWYQQTPGNAPKLLIHSATSLQSGVPSRFSGSGSGTDFTLTINSLQPEDFATYYCQQADSFPLTFGGGTKVEIK
B10: XPA23 Fab, heavy chain F33R (Fab, V domains shown)
VH: EVQLLESGGGLVQPGGSLRLSCAASGFTFSKYRMFWVRQAPGKGLEWVSVISPSGGMTRYADSVKGRFTISRDNSKNTLYLQMNSLRAEDTAVYYCARVGYGGNSDYWGQGTLVTVSS
VL: DIQMTQSPSSVSASVGDRLTIICRASQDINRWLAWYQQTPGNAPKLLIHSATSLQSGVPSRFSGSGSGTDFTLTINSLQPEDFATYYCQQADSFPLTFGGGTKVEIK
B11: XPA23 Fab, heavy chain F35E (Fab, V domains shown)
VH: EVQLLESGGGLVQPGGSLRLSCAASGFTFSKYFMEWVRQAPGKGLEWVSVISPSGGMTRYADSVKGRFTISRDNSKNTLYLQMNSLRAEDTAVYYCARVGYGGNSDYWGQGTLVTVSS
VL: DIQMTQSPSSVSASVGDRLTIICRASQDINRWLAWYQQTPGNAPKLLIHSATSLQSGVPSRFSGSGSGTDFTLTINSLQPEDFATYYCQQADSFPLTFGGGTKVEIK
B12: XPA23 Fab, heavy chain F33E (Fab, V domains shown)
VH: EVQLLESGGGLVQPGGSLRLSCAASGFTFSKYEMFWVRQAPGKGLEWVSVISPSGGMTRYADSVKGRFTISRDNSKNTLYLQMNSLRAEDTAVYYCARVGYGGNSDYWGQGTLVTVSS
VL: DIQMTQSPSSVSASVGDRLTIICRASQDINRWLAWYQQTPGNAPKLLIHSATSLQSGVPSRFSGSGSGTDFTLTINSLQPEDFATYYCQQADSFPLTFGGGTKVEIK
B13: XPA23 Fab, heavy chain F33D (Fab, V domains shown)
VH: EVQLLESGGGLVQPGGSLRLSCAASGFTFSKYDMFWVRQAPGKGLEWVSVISPSGGMTRYADSVKGRFTISRDNSKNTLYLQMNSLRAEDTAVYYCARVGYGGNSDYWGQGTLVTVSS
VL: DIQMTQSPSSVSASVGDRLTIICRASQDINRWLAWYQQTPGNAPKLLIHSATSLQSGVPSRFSGSGSGTDFTLTINSLQPEDFATYYCQQADSFPLTFGGGTKVEIK
B14: XPA23 Fab, heavy chain F35Q (Fab, V domains shown)
VH: EVQLLESGGGLVQPGGSLRLSCAASGFTFSKYFMQWVRQAPGKGLEWVSVISPSGGMTRYADSVKGRFTISRDNSKNTLYLQMNSLRAEDTAVYYCARVGYGGNSDYWGQGTLVTVSS
VL: DIQMTQSPSSVSASVGDRLTIICRASQDINRWLAWYQQTPGNAPKLLIHSATSLQSGVPSRFSGSGSGTDFTLTINSLQPEDFATYYCQQADSFPLTFGGGTKVEIK
B15: XPA23 Fab, heavy chain F35K (Fab, V domains shown)
VH: EVQLLESGGGLVQPGGSLRLSCAASGFTFSKYFMKWVRQAPGKGLEWVSVISPSGGMTRYADSVKGRFTISRDNSKNTLYLQMNSLRAEDTAVYYCARVGYGGNSDYWGQGTLVTVSS
VL: DIQMTQSPSSVSASVGDRLTIICRASQDINRWLAWYQQTPGNAPKLLIHSATSLQSGVPSRFSGSGSGTDFTLTINSLQPEDFATYYCQQADSFPLTFGGGTKVEIK
B16: XPA23 Fab, heavy chain F33S (Fab, V domains shown)
VH: EVQLLESGGGLVQPGGSLRLSCAASGFTFSKYSMFWVRQAPGKGLEWVSVISPSGGMTRYADSVKGRFTISRDNSKNTLYLQMNSLRAEDTAVYYCARVGYGGNSDYWGQGTLVTVSS
VL: DIQMTQSPSSVSASVGDRLTIICRASQDINRWLAWYQQTPGNAPKLLIHSATSLQSGVPSRFSGSGSGTDFTLTINSLQPEDFATYYCQQADSFPLTFGGGTKVEIK
B17: XPA23 Fab, heavy chain F35S (Fab, V domains shown)
VH: EVQLLESGGGLVQPGGSLRLSCAASGFTFSKYFMSWVRQAPGKGLEWVSVISPSGGMTRYADSVKGRFTISRDNSKNTLYLQMNSLRAEDTAVYYCARVGYGGNSDYWGQGTLVTVSS
VL: DIQMTQSPSSVSASVGDRLTIICRASQDINRWLAWYQQTPGNAPKLLIHSATSLQSGVPSRFSGSGSGTDFTLTINSLQPEDFATYYCQQADSFPLTFGGGTKVEIK
B18: XPA23 Fab, heavy chain F33Q (Fab, V domains shown)
VH: EVQLLESGGGLVQPGGSLRLSCAASGFTFSKYQMFWVRQAPGKGLEWVSVISPSGGMTRYADSVKGRFTISRDNSKNTLYLQMNSLRAEDTAVYYCARVGYGGNSDYWGQGTLVTVSS
VL: DIQMTQSPSSVSASVGDRLTIICRASQDINRWLAWYQQTPGNAPKLLIHSATSLQSGVPSRFSGSGSGTDFTLTINSLQPEDFATYYCQQADSFPLTFGGGTKVEIK
B19: XPA23 Fab, heavy chain F33H (Fab, V domains shown)
VH: EVQLLESGGGLVQPGGSLRLSCAASGFTFSKYHMFWVRQAPGKGLEWVSVISPSGGMTRYADSVKGRFTISRDNSKNTLYLQMNSLRAEDTAVYYCARVGYGGNSDYWGQGTLVTVSS
VL: DIQMTQSPSSVSASVGDRLTIICRASQDINRWLAWYQQTPGNAPKLLIHSATSLQSGVPSRFSGSGSGTDFTLTINSLQPEDFATYYCQQADSFPLTFGGGTKVEIK
B20: XPA23 Fab, heavy chain F35H (Fab, V domains shown)
VH: EVQLLESGGGLVQPGGSLRLSCAASGFTFSKYFMHWVRQAPGKGLEWVSVISPSGGMTRYADSVKGRFTISRDNSKNTLYLQMNSLRAEDTAVYYCARVGYGGNSDYWGQGTLVTVSS
VL: DIQMTQSPSSVSASVGDRLTIICRASQDINRWLAWYQQTPGNAPKLLIHSATSLQSGVPSRFSGSGSGTDFTLTINSLQPEDFATYYCQQADSFPLTFGGGTKVEIK
B21: XPA23 Fab, heavy chain F33Y (Fab, V domains shown)
VH: EVQLLESGGGLVQPGGSLRLSCAASGFTFSKYYMFWVRQAPGKGLEWVSVISPSGGMTRYADSVKGRFTISRDNSKNTLYLQMNSLRAEDTAVYYCARVGYGGNSDYWGQGTLVTVSS
VL: DIQMTQSPSSVSASVGDRLTIICRASQDINRWLAWYQQTPGNAPKLLIHSATSLQSGVPSRFSGSGSGTDFTLTINSLQPEDFATYYCQQADSFPLTFGGGTKVEIK

The test concerns the target T1, IL-1beta (UniProt P01584 117-269).
T1 construct: also called IL-1β
Kind of test: Biacore.
Turning to B1, the “fold difference in affinity vs parental” value is 0.03 fold. In the case of B2, the binding result was “no binding”. As for B3, the “fold difference in affinity vs parental” value amounted to 0.97 fold. For the molecule B4, the “fold difference in affinity vs parental” value was found to be 0.85 fold. Same read-out and setting: for B5 the value was 0.86 fold.

As to B6, the binding result is “no binding”.

Take B7: the “fold difference in affinity vs parental” value was determined as 0.79 fold.

With B8, the “fold difference in affinity vs parental” value is 0.06 fold.

Consider B9, for which the binding result is “no binding”. Still for that read-out and setting: the result for B10 reads “no binding”. Still for that read-out and setting: the result for B11 reads “no binding”. As to B12, the “fold difference in affinity vs parental” value is 0.86 fold. On the same count and under the same terms, for B13 the value was 0.92 fold. B14: the binding result was “no binding”. Take B15: the “fold difference in affinity vs parental” value was 0.68 fold. Turning to B16, the “fold difference in affinity vs parental” value worked out at 0.73 fold. On the same count and under the same terms, for B17 the value was 0.09 fold; for B18, 0.78 fold.

As to B19, the binding result was “no binding”. As for B20, the binding result is on record as “no binding”. Consider B21, for which the “fold difference in affinity vs parental” value came to 0.77 fold.
